In patent publication US20200377590A1 (Hoffmann-La Roche, published 2020) one finds ELISA data data, which are given here for 34 molecules.

To fix the notation:
B1: CD81K13 HC 01-hVH_1_f / LC CD81K13 (antibody, V domains shown)
VH: EVQLVQSGAEVKKPGATVKISCKVSGYTFTDSYMHWVQQAPGKGLEWMGRIDTGNGNVKFDPKFQGRVTITADTSTDTAYMELSSLRSEDTAVYYCAPYGYGFHSWGQGTLVTVSS
VL: DIQMTQSPASLSVSVGETVTITCRASENIYRTLAWYLQKQGKSPQLLVYGATTLADGVPSRFSGSGSGTQYYLKINSLQSEDFGTYHCQHFWGTPWTFGGGTKVEIK
notes: human constant region
B2: CD81K13 HC 01-hVH_1_f / LC 06-hVK_1_39 (antibody, V domains shown)
VH: B1 VH
VL: DIQMTQSPSSLSASVGDRVTITCRASENIYRTLAWYQQKPGKAPKLLIYAATTLASGVPSRFSGSGSGTDFTLTISSLQPEDFGTYYCQHFWGTPWTFGQGTKVEIK
notes: human constant region
B3: CD81K13 HC 01-hVH_1_f / LC 05-hVK_1_39 (antibody, V domains shown)
VH: B1 VH
VL: B2 VL with G84A
notes: human constant region
B4: CD81K13 HC 02-hVH_1_3 / LC CD81K13 (antibody, V domains shown)
VH: QVQLVQSGAEVKKPGASVKVSCKASGYTFTDSYMHWVRQAPGQRLEWMGRIDTGNGNTKYSQKFQGRVTITTDTSASTAYMELSSLRSEDTAVYYCAPYGYGFHSWGQGTLVTVSS
VL: B1 VL
notes: human constant region
B5: CD81K13 HC 01-hVH_1_f / LC 07-hVK_1_27 (antibody, V domains shown)
VH: B1 VH
VL: B2 VL with A43V, F83V, H90K
notes: human constant region
B6: CD81K13 HC 01-hVH_1_f / LC 04-hVK_1_9 (antibody, V domains shown)
VH: B1 VH
VL: B2 VL with M4L, S10F, D70E
notes: human constant region
B7: CD81K13 HC 01-hVH_1_f / LC 5b-hVK_1_39-GA (antibody, V domains shown)
VH: B1 VH
VL: B2 VL with A50G, S56D, G84A
notes: human constant region
B8: CD81K13 HC 01-hVH_1_f / LC 03-hVK_1_9 (antibody, V domains shown)
VH: B1 VH
VL: B2 VL with M4L, S10F, D70E, G84A
notes: human constant region
B9: CD81K13 HC 01-hVH_1_f / LC 5b-hVK_1_39 (antibody, V domains shown)
VH: B1 VH
VL: B2 VL with A50G, S56D, G84A
notes: human constant region
B10: CD81K13 HC CD81K13 / LC 1c-hVK_3_15 (antibody, V domains shown)
VH: EVRLHQSAAQLVQPGASVRLSCTTSGFNFKDSYLHWVKQRPAQGLEWIGRIDTGNGNVKFDPKFQDKATITTDIPSMTAYLHLSNLTSEDTAVYYCVPYGYGFHSWGDGTTLTVSS
VL: EIVMTQSPATLSVSPGERATLSCRASENIYRTLAWYQQKPGQAPRLLIYGATTLADGIPARFSGSGSGTEFTLTISSLQSEDFGVYYCQHFWGTPWTFGQGTKVEIK
notes: human constant region
B11: CD81K13 HC 01-hVH_1_f / LC 01-hVK_3_15 (antibody, V domains shown)
VH: B1 VH
VL: B10 VL with L54R, D56T
notes: human constant region
B12: CD81K13 HC 02-hVH_1_3 / LC 1b-hVK_3_15 (antibody, V domains shown)
VH: B4 VH
VL: B10 VL with G84A
notes: human constant region
B13: CD81K13 HC 02-hVH_1_3 / LC 1c-hVK_3_15 (antibody, V domains shown)
VH: B4 VH
VL: B10 VL
notes: human constant region
B14: CD81K13 HC CD81K13 / LC 05-hVK_1_39 (antibody, V domains shown)
VH: B10 VH
VL: B2 VL with G84A
notes: human constant region
B15: CD81K13 HC 01-hVH_1_f / LC 1c-hVK_3_15 (antibody, V domains shown)
VH: B1 VH
VL: B10 VL
notes: human constant region
B16: CD81K13 HC 02-hVH_1_3 / LC 01-hVK_3_15 (antibody, V domains shown)
VH: B4 VH
VL: B10 VL with L54R, D56T
notes: human constant region
B17: CD81K13 HC 01-hVH_1_f / LC 1b-hVK_3_15 (antibody, V domains shown)
VH: B1 VH
VL: B10 VL with G84A
notes: human constant region
B18: CD81K13 HC CD81K13 / LC 01-hVK_3_15 (antibody, V domains shown)
VH: B10 VH
VL: B10 VL with L54R, D56T
notes: human constant region
B19: CD81K13 HC CD81K13 / LC 04-hVK_1_9 (antibody, V domains shown)
VH: B10 VH
VL: B2 VL with M4L, S10F, D70E
notes: human constant region
B20: CD81K13 HC CD81K13 / LC 07-hVK_1_27 (antibody, V domains shown)
VH: B10 VH
VL: B2 VL with A43V, F83V, H90K
notes: human constant region
B21: CD81K13 HC CD81K13 / LC 5b-hVK_1_39-GA (antibody, V domains shown)
VH: B10 VH
VL: B2 VL with A50G, S56D, G84A
notes: human constant region
B22: CD81K13 HC CD81K13 / LC 1b-hVK_3_15 (antibody, V domains shown)
VH: B10 VH
VL: B10 VL with G84A
notes: human constant region
B23: CD81K13 HC CD81K13 / LC 03-hVK_1_9 (antibody, V domains shown)
VH: B10 VH
VL: B2 VL with M4L, S10F, D70E, G84A
notes: human constant region
B24: CD81K13 HC CD81K13 / LC 06-hVK_1_39 (antibody, V domains shown)
VH: B10 VH
VL: B2 VL
notes: human constant region
B25: CD81K13 HC CD81K13 / LC 5b-hVK_1_39 (antibody, V domains shown)
VH: B10 VH
VL: B2 VL with A50G, S56D, G84A
notes: human constant region
B26: CD81K13 HC 02-hVH_1_3 / LC 03-hVK_1_9 (antibody, V domains shown)
VH: B4 VH
VL: B2 VL with M4L, S10F, D70E, G84A
notes: human constant region
B27: CD81K13 HC 02-hVH_1_3 / LC 04-hVK_1_9 (antibody, V domains shown)
VH: B4 VH
VL: B2 VL with M4L, S10F, D70E
notes: human constant region
B28: CD81K04 HC GG-01-hVH_5_51 / LC JA_GG-08-hVK_4_1 (antibody, V domains shown)
VH: EVQLVQSGAEVKKPGESLKISCKGSGYSFSSSWMNWVRQMPGKGLEWMGRIYSGDGDAIYSPSFQGQVTISADKSISTAYLQLSSLKASDTAMYYCAREGKTGDLLLRSWGQGTLVTVSS
VL: DIVMTQSPDSLAVSLGERATINCKSSKSVSTSIYSYMHWYQQKPGQPPKLLIKYASYLESGVPDRFSGSGSGTDFTLTISSLQAEDVAVYYCEHSREFPFTFGQGTKLEIK
notes: human constant region
B29: CD81K04 HC GG-01-hVH_5_51 / LC JA_GG-07-hVK_7_3 (antibody, V domains shown)
VH: B28 VH
VL: DIVLTQSPASLAVSPGQRATITCRASKSVSTSIYSYMHWYQQKPGQPPKLLIKYASNKDTGVPARFSGSGSGTDFTLTINPVEANDAANYYCLHSREFPYTFGQGTKLEIK
notes: human constant region
B30: CD81K04 HC GG-05-hVH_1_18 / LC JA_GG-10-hVK_4_1 (antibody, V domains shown)
VH: QVQLVQSGAEVKKPGASVKVSCKASGYTFSSSWMNWVRQAPGQGLEWMGRIYSGDGDAIYAQKLQGRVTMTTDTSTSTAYMELRSLRSDDTAVYYCAREGKTGDLLLRSWGQGTLVTVSS
VL: B28 VL with K24R, S25A
notes: human constant region
B31: CD81K04 HC GG-01-hVH_5_51 / LC GG-06-hVK_1_39 (antibody, V domains shown)
VH: B28 VH
VL: DIQMTQSPSSLSASVGDRVTITCRASKSVSTSIYSYLNWYQQKPGKAPKLLIYYASYLQSGVPSRFSGSGSGTDFTLTISSLQPEDFATYYCQHSREFPYTFGQGTKLEIK
notes: human constant region
B32: CD81K04 HC GG-01-hVH_5_51 / LC GG-05-hVK_3_11 (antibody, V domains shown)
VH: B28 VH
VL: EIVLTQSPATLSLSPGERATLSCRASKSVSTSIYSYLHWYQQKPGQAPRLLIYYASNRETGIPARFSGSGSGTDFTLTISSLEPEDFAVYYCQHSREFPFTFGQGTKLEIK
notes: human constant region
B33: CD81K04 HC GG-01-hVH_5_51 / LC JA_GG-09-hVK_4_1 (antibody, V domains shown)
VH: B28 VH
VL: B28 VL with Y57T, L58R
notes: human constant region
B34: CD81K04 HC GG-01-hVH_5_51 / LC JA_GG-10-hVK_4_1 (antibody, V domains shown)
VH: B28 VH
VL: B28 VL with K24R, S25A
notes: human constant region

Numbering of substitutions follows the chain as printed.
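Further: antibody binding to HuH7 cells expressing CD81 versus a CD81-negative HuH7 control line, bound antibody detected by secondary reagent, absorbance at 450 nm with 620 nm reference.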

The target in one assay is T1, CD81 (UniProt P60033 1-236, limits assumed).
T1 construct: whole, on cells; also called CD81 receptor
T1 sequence (looked up): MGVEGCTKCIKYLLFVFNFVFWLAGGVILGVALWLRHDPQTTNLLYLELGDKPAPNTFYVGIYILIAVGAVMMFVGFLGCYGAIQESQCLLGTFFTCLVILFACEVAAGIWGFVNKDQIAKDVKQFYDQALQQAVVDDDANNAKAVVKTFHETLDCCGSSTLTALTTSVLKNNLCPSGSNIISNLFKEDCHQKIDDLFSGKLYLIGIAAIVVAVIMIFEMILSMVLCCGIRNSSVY
Kind of assay: cell ELISA.
Method: For the binding cell ELISA assay, HuH7-Rluc-H3 (positive cell line expressing CD81) and HuH7-Rluc-L1 (negative control cell line) were propagated in F-12 DMEM medium with 10% FCS at 37° C. and 5% CO₂. On day 1, the cells were trypsinized at approximately 90% confluence and resuspended at 4×10⁵ cells/mL. […] On day 2, the antibody samples to be tested were prepared in a separate polypropylene round bottom plate with a twofold desired concentration with a final volume of 120 μl. All of the assay samples were diluted in cell culture medium. […] After fixation, each well was washed 3 times with 200 μL PBS/0.05% Tween. The secondary incubation step for detection of bound anti-CD81 antibodies was performed for 2 h at room temperature on a reciprocal shaker. […] Each well was washed three times with 200 μL PBS/0.05% Tween to remove unbound antibodies. […] The absorbance was read using the ELISA Tecan reader at 450 nm with 620 nm reference wavelength.
Regarding B1, the ELISA data came out at 0.272.
Turning to B2, the ELISA data amounted to 0.822.
B3 returned an ELISA data of 0.458.
Turning to B4, the ELISA data amounted to 0.585.
For B5, the ELISA data is 0.086.
The same measure, in the same setting: the value for B6 was 0.244; that for B7 was 0.848.
B8 had an ELISA data of 0.294.
Turning to B9, the ELISA data is 0.89.
On the same count and under the same terms, next, B10: 0.95.
Turning to B11, the ELISA data was determined as 0.527.
In turn, B12 displayed an ELISA data of 0.347.
In turn, B13 registered an ELISA data of 0.283.
Consider B14, for which the ELISA data was 0.886.
The molecule B15 gave an ELISA data of 0.617.
As for B16, the ELISA data was found to be 0.314.
Same read-out and setting: next, B17: 0.392.
Regarding B18, the ELISA data is 1.01.
In turn, B19 registered an ELISA data of 0.851.
B20 gave an ELISA data of 0.199.
Consider B21, for which the ELISA data stood at 0.751.
On to B22, for which the ELISA data worked out at 0.86.
Regarding B23, the ELISA data turned out to be 0.949.
On the same count and under the same terms, next, B24: 0.811.
Same read-out and setting: the value for B25 was 0.594; that for B26 was 0.13; that for B27 was 0.163.

A further assay concerns the target T1, CD81. Kind of assay: cell ELISA. The source holds these as a separate data set.
B28 gave an ELISA data of 0.164.
B29 gave an ELISA data of 0.061.
As for B30, the ELISA data was 0.841.
In turn, B31 showed an ELISA data of 0.089.
Consider B32, for which the ELISA data came to 0.073.
With B33, the ELISA data was 0.148.
B34 returned an ELISA data of 0.064.
